According to patent US20060051295A1, “Estrogen receptor interaction with a transcription factor” (priority 2002, published 2006):

Columns and labels:
ERα [1] = molecular target: T1, ERα (Homo sapiens, UniProt P03372); test: Transrepression of IL-1β induced NF-κB responsive promoter-reporters, U-2 OS transiently transfected with ERα; type: cell-based; parameters: expressed in transfected cells; conditions: ER alpha transfected, IL-1 induced
T1 sequence (P03372 1-595): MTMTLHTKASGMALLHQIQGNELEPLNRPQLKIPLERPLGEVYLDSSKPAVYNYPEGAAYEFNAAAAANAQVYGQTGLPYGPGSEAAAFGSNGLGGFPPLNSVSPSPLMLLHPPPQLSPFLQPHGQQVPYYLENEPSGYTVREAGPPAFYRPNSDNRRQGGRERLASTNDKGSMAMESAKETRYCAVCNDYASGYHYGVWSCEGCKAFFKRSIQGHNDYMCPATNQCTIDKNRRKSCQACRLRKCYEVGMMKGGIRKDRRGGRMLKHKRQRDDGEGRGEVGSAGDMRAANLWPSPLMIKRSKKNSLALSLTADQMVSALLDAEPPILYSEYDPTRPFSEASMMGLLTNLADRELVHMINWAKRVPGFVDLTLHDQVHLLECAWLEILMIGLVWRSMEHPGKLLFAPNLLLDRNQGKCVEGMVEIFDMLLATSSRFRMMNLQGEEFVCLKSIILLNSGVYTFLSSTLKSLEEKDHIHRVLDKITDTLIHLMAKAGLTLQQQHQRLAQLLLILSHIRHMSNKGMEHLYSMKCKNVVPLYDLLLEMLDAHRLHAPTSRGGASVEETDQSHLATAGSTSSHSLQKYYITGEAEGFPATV
From the text: pKCRE-ERα, pKCRE-ERβ and pNGV1-GR contain the human wild-type estrogen receptor α (ERα), ERβ or GR respectively under control of the SV40 promoter. The pCMV4-c-Rel expression vector was produced by cloning of the coding region of c-Rel into the pCMV4 vector (Andersson et al., 1989). pGL3-ELAM, pGL3-VCAM and pGL3-ICAM have been constructed based on PCR using the sequences as outlined in appendix 1. The luciferase reporter plasmid 3*NF-κB-TK was constructed by inserting three repeats of the NF-κB binding site from the ICAM promoter (van de Stolpe et al.; J. Biol Chem. 269: 6185-6192. 1994) in front of the herpes simplex virus thymidine kinase (HSV-TK) promoter. The TK promoter was cloned into the Bgl II-site of pGL3-basic (Promega). The triple repeat of NF-κB binding sites was constructed by annealing the oligonucleotide primers 5′-[…]-3′ and 5′-[…]-3′ followed by PRC amplification and subcloning in the pCR™2.1 vector. The insert was excised using HindIII, blunted with Klenow DNA polymerase and ligated into the SmaI site of pGL3-tk-luc. 4xERE-TATA Luc (plasmid nr. 460) contains four repeats of an estrogen responsive element followed by a TATA box and a luciferase gene. The pSV-β-Galactosidase (pSVβ) control vector (Promega) served as a positive control vector for monitoring transfection efficiencies of mammalian cells. The SV40 early promoter and enhancer drive transcription of the LacZ gene which encodes the β-Galactosidase enzyme. The yeast 2-hybrid constructs pGAD424-ERα, pGAD424-ERαdAB and pGAD424-ERβ were constructed by cloning respectively the human ERα, the ERα without the AB domain and the human ERβ cDNA in pGAD424. pGAD424-ERα LBD was constructed by cloning the LBD of ERα, obtained by PCR, in the EcoRI and SalI sites of pGAD424 vector. pGBT9-c-Rel was constructed by cloning the c-Rel fragment, obtained by PCR on pCMV4-c-Rel in the EcoRI and BamHI sites of pGBT9. The p65/RelA cDNA was obtained by PCR on the pCMV4-p65.
For transient transfections, cells were seeded in 6-well plates (2.10^5 cells/well). After two or three days the cells were transfected with reporter, expression vectors and β-galactosidase control vector. Two different experimental settings were used. For testing transrepression of IL-1β induced promoter activity, cells were transfected with 1 μg reporter construct, 1 μg expression vector (containing either ERα, ERβ or GR), and 0.25 μg of β-galactosidase control plasmid.

ERα [2] = molecular target: T1, ERα; test: NF-κB-responsive reporters in ECV304-ERα cells, IL-1 induced; type: cell-based; parameters: expressed in transfected cells; conditions: ECV304-ERα cells (A)
From the text: This example describes an assay, based on the E-selectin or VCAM promoter in combination with ERα in the T24/ECV cell line. Note that for the ER/NF-κB transrepression assay the ECV304 cell line was used, which was believed to be the only endothelial cell line available that was suitable for producing stable ERα expressing clones. At a later stage ATCC reported that the ECV304 cells were no endothelial cells but, instead, were T24 bladder carcinoma cells. In order to enhance the cytokine induction and amount of repression by estrogens, multiple copies of NF-κB responsive regions of the E-Selectin and VCAM promoters were used to construct new reporters named ELAM1a, ELAM2, ELAM-HMG, VCAM1-2, VCAM2, and VCAM3 (for reporter details see appendix 1).
ECV304-ERα cells stably express ERα and endogenous c-Rel, whereas COS cells were transiently transfected with ERα, and, where indicated, c-Rel. Both cell types were co-transfected with the indicated E-selectin (ELAM) or VCAM promoter derived reporters.
Human osteosarcoma U-2 OS (HTB-96), monkey kidney COS-1 (CRL-1650) and human ECV304 (CRL-1998) cells have been obtained from ATCC (American Type Culture collection). ECV304 cells were sold by ATCC as human endothelial cells, however at a later stage ATCC informed us that this cell line was in fact the human bladder epithelial carcinoma cell line T24. Therefore, these cells are called T24/ECV in this report. ECV304/T24(-ERα), U-2 OS and COS-7 cells were grown in a 1:1 mixture of phenol red free Dulbecco's modified medium (DMEM) and Ham's F12 medium (=M505), supplemented with 10% fetal calf serum (FCS). Experiments were performed in M505+10% FCTS (fetal calf serum treated with dextran-coated charcoal to deplete serum from steroid activity).
The six NF-κB responsive reporters pHGL3-ELAM 1a, pHGL3-ELAM 2, pHGL3-ELAM HMG, pHGL3-VCAM 1-2, pHGL3-VCAM 2 and pHGL3-VCAM 3 (plasmid nr. 1921-1926 respectively) were constructed by ligating annealed primers in the Kpn I and Sac I sites of pHGL3-TATA. The primers were based on the NF-κB-RE sequences in the ELAM and the VCAM promoter (see Appendix 1). Several copies of the NF-κB-RE's were cloned in order the gain a higher absolute luciferase signal. The ELAM HMG construct contains a double repeat, while the other constructs contain three NF-κB -RE's. For primer and reporter sequences, see appendix 1.
For transient transfections, cells were seeded in 6-well plates (2.10^5 cells/well). After two or three days the cells were transfected with reporter, expression vectors and β-galactosidase control vector. Two different experimental settings were used. For testing transrepression of IL-1β induced promoter activity, cells were transfected with 1 μg reporter construct, 1 μg expression vector (containing either ERα, ERβ or GR), and 0.25 μg of β-galactosidase control plasmid. For testing transrepression in combination with c-Rel or ReLA overexpression, cells were transfected with 1 μg reporter construct, 1 μg expression vector (containing either ERα, ERβ or GR) and 0.1 or 1.0 μg expression vector containing c-Rel or RelA and 0.25 μg of β-galactosidase control vector. Equivalent amounts of DNA were obtained by adding the appropriate expression vector that lacks an insert. Transient transfection was performed using lipofectin reagent (Life Technologies). […] The transfected cells were incubated overnight with test compounds prior to cell lysis. Measurement of luciferase and P-galactosidase activity were performed using respectively the luciferase assay system (Promega) and Galacto-light plus (Tropix) according to the manufacturers' protocols and measured on the Victor 1420 multilabel counter, Wallac.

ERα [3] = molecular target: T1, ERα; test: Stably transfected ECV304/T24-ERα-ELAM-HMG and -VCAM3 clones, luciferase activity; conditions: stable ECV304/T24-ERα clone, IL1 induced

- luciferase activity, 3*NFkB-reporter (ERα [1]): 1836839
- luciferase activity, ELAM+ reporter (ERα [1]): 99757
- luciferase activity, ICAM reporter (ERα [1]): 908172
- luciferase activity, VCAM reporter (ERα [1]): 30296
- luciferase activity, ELAM1a reporter (ERα [2]): 1818 cps
- luciferase activity, ELAM2 reporter (ERα [2]): 39383 cps
- luciferase activity, ELAM− reporter (ERα [2]): 160167 cps
- luciferase activity, VCAM1-2 reporter (ERα [2]): 3741 cps
- luciferase activity, VCAM2 reporter (ERα [2]): 19464 cps
- luciferase activity, VCAM3 reporter (ERα [2]): 22767 cps
- luciferase activity, VCAM reporter (ERα [2]): 3099 cps
- luciferase activity, ELAM-HMG clone 2B8 (ERα [3]): 8410
- luciferase activity, ELAM-HMG clone 2F4 (ERα [3]): 1566
- luciferase activity, VCAM3 clone 3A10 (ERα [3]): 3907
- luciferase activity, VCAM3 clone 4B6 (ERα [3]): 2122
Substance: IL-1: cytokine used to induce NF-κB responsive reporter activity
